This note sets out measurements from article doi:10.1101/2021.01.30.428938.

For experiment [1], the target named is Theileria parva schizont antigen Tp2, full-length native, bacterially expressed with His-tag (Theileria parva (Muguga)). Put plainly: SEC-MALS.
For experiment [2] the target is unchanged. Put plainly: SEC.

“And” between values parts separate entries of the source, which are not always exact repeats. Equal entries are not always repeated.

As for “Theileria parva schizont antigen Tp2, full-length native, bacterially expressed with His-tag (natural protein)”, the stoichiometry N in experiment [1] is 2; in experiment [2], 4 and 2.
